Assay results: the supplement of paper PMC7125110
± gives the standard error. For some assays here: Variants at the floor of the assay were thinned out.

B1: glmS ribozyme (parent)
chain: AUAAAAGCGCCAGAACUACAGAAAUGUAGUUGACGAGGAGGAGGUUUAUCGAAUUUUCGGCGGAUGCCUCCAAA

Tests used:
Conditions in all cases: with glucosamine-6-phosphate
[1] = variants of: B1; assay: kcat; higher = faster cleavage; RNA array
In short: (§1)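 Tracking of barcoded ribozyme variants used a hybridised Cy3 probe at 37 °C, after in situ transcription by E. coli RNA polymerase on sequenced MiSeq chips. The flowed solution held 40 μM to 10 mM glucosamine-6-phosphate in HEPES/KCl/Mg(OAc)2 buffer, and imaging ran over ~14 h. kobs was taken from exponential decay fits of normalised per-tile medians, and kcat and KM from weighted Michaelis–Menten fits.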

[2] = variants of: B1; assay: self-cleavage kobs at 40 uM GlcN6P; higher = faster cleavage; RNA array
In short: as §1

[3] = variants of: B1; assay: self-cleavage kobs at 160 uM GlcN6P; higher = faster cleavage; RNA array
In short: as §1

[4] = variants of: B1; assay: self-cleavage kobs at 640 uM GlcN6P; higher = faster cleavage; RNA array
In short: as §1

[5] = variants of: B1; assay: self-cleavage kobs at 2500 uM GlcN6P; higher = faster cleavage; RNA array
In short: as §1

[6] = variants of: B1; assay: self-cleavage kobs at 10000 uM GlcN6P; higher = faster cleavage; RNA array
In short: as §1

[7] = variants of: B1; assay: KM; higher = weaker cofactor use; RNA array
In short: as §1

| Variant | kcat [1] | self-cleavage kobs at 40 uM GlcN6P [2] | self-cleavage kobs at 160 uM GlcN6P [3] | self-cleavage kobs at 640 uM GlcN6P [4] | self-cleavage kobs at 2500 uM GlcN6P [5] | self-cleavage kobs at 10000 uM GlcN6P [6] | KM [7] |
| --- | --- | --- | --- | --- | --- | --- | --- |
| G40A A53U | 0.00621 ± 0.0028 s⁻¹ | 0.00015 ± 1.5e-05 s⁻¹ | 0.000422 ± 0.00011 s⁻¹ | 0.00107 ± 0.00016 s⁻¹ | 0.00268 ± 0.00057 s⁻¹ | 0.00711 ± 0.001 s⁻¹ |  |
| G37C G59U | 1.65e-05 ± 6.9e-06 s⁻¹ |  |  |  |  |  |  |
| A39G G40U U55C C71A | 0.00728 ± 0.0021 s⁻¹ | 0.000207 ± 4.1e-05 s⁻¹ | 0.000368 ± 8.6e-05 s⁻¹ | 0.00178 ± 0.00043 s⁻¹ | 0.00448 ± 0.00083 s⁻¹ | 0.00562 ± 0.001 s⁻¹ | 2200 ± 930 µM |
| G40U C70G | 0.000495 ± 8.8e-05 s⁻¹ | 2.91e-05 ± 7.3e-06 s⁻¹ | 4.28e-05 ± 7.1e-06 s⁻¹ | 0.000121 ± 1e-05 s⁻¹ | 0.000346 ± 3.4e-05 s⁻¹ | 0.000404 ± 3.4e-05 s⁻¹ | 1770 ± 560 µM |
| G40U C70U | 0.00235 ± 0.00039 s⁻¹ | 5.55e-05 ± 7.2e-06 s⁻¹ | 0.000139 ± 1.4e-05 s⁻¹ | 0.000566 ± 6.5e-05 s⁻¹ | 0.00132 ± 0.00013 s⁻¹ | 0.00186 ± 0.0002 s⁻¹ | 2200 ± 510 µM |
| A39C U55A | 0.00799 ± 0.0028 s⁻¹ | 0.000201 ± 4.2e-05 s⁻¹ | 0.000429 ± 7.8e-05 s⁻¹ | 0.00143 ± 0.00023 s⁻¹ | 0.00295 ± 0.00058 s⁻¹ | 0.00755 ± 0.0012 s⁻¹ | 2790 ± 1400 µM |
| A39U U47A | 0.0219 ± 0.0045 s⁻¹ | 0.000309 ± 3.8e-05 s⁻¹ | 0.000791 ± 0.00013 s⁻¹ | 0.00397 ± 0.00055 s⁻¹ | 0.00871 ± 0.0017 s⁻¹ | 0.0166 ± 0.002 s⁻¹ | 3320 ± 900 µM |
| A39U U47G | 0.00519 ± 0.00052 s⁻¹ | 0.000119 ± 1.7e-05 s⁻¹ | 0.000358 ± 4.8e-05 s⁻¹ | 0.00132 ± 0.00018 s⁻¹ | 0.00285 ± 0.00052 s⁻¹ | 0.00439 ± 0.00057 s⁻¹ | 1940 ± 270 µM |
| A39U G44C | 0.000268 ± 4.5e-05 s⁻¹ |  |  | 6.01e-05 ± 1.7e-05 s⁻¹ | 0.0002 ± 3.9e-05 s⁻¹ | 0.000212 ± 3.2e-05 s⁻¹ | 1920 ± 770 µM |
| A39U G44A | 0.00136 ± 0.00031 s⁻¹ | 0.000115 ± 1.3e-05 s⁻¹ | 0.00021 ± 3.9e-05 s⁻¹ | 0.00078 ± 9.9e-05 s⁻¹ | 0.001 ± 0.00017 s⁻¹ | 0.00144 ± 0.00021 s⁻¹ | 572 ± 210 µM |
| G37C C68G | 1.8e-05 ± 3.8e-06 s⁻¹ |  |  |  |  |  |  |
| A39G U55C | 0.0858 ± 0.023 s⁻¹ | 0.00123 ± 0.00015 s⁻¹ | 0.00406 ± 0.0011 s⁻¹ | 0.0122 ± 0.0029 s⁻¹ |  | 0.0709 ± 0.018 s⁻¹ | 3000 ± 920 µM |
| G37C A53C | 1.74e-05 ± 7.2e-06 s⁻¹ |  |  |  |  |  |  |
| G38C C70A | 1.54e-05 ± 2.7e-06 s⁻¹ |  |  |  |  |  |  |
| G37C C61A | < 1e-05 s⁻¹ |  |  |  |  |  |  |
| G38C C61A | < 1e-05 s⁻¹ |  | < 1e-05 s⁻¹ |  | < 1e-05 s⁻¹ |  |  |

| Variant | kcat [1] | self-cleavage kobs at 40 uM GlcN6P [2] | self-cleavage kobs at 160 uM GlcN6P [3] | self-cleavage kobs at 640 uM GlcN6P [4] | self-cleavage kobs at 2500 uM GlcN6P [5] | self-cleavage kobs at 10000 uM GlcN6P [6] | KM [7] |
| --- | --- | --- | --- | --- | --- | --- | --- |
| A39C U46C U56C | 0.000367 ± 3.7e-05 s⁻¹ |  |  | 6.45e-05 ± 1.5e-05 s⁻¹ | 0.000196 ± 5.6e-05 s⁻¹ | 0.000277 ± 5.9e-05 s⁻¹ | 2880 ± 510 µM |
| G40C A64G | 0.00107 ± 0.00027 s⁻¹ |  | 4.29e-05 ± 1.9e-05 s⁻¹ |  | 0.000837 ± 0.00017 s⁻¹ | 0.000811 ± 9.3e-05 s⁻¹ |  |
| A39C G66U | 0.00114 ± 0.00017 s⁻¹ |  | 8.13e-05 ± 2.3e-05 s⁻¹ | 0.000198 ± 3.9e-05 s⁻¹ | 0.000424 ± 8.2e-05 s⁻¹ | 0.000908 ± 9.9e-05 s⁻¹ | 3090 ± 910 µM |
| A39C G66C | 0.00165 ± 0.00036 s⁻¹ | 3.24e-05 ± 1.1e-05 s⁻¹ | 7.03e-05 ± 1.6e-05 s⁻¹ | 0.000348 ± 6.6e-05 s⁻¹ | 0.00104 ± 0.00017 s⁻¹ | 0.0012 ± 0.00016 s⁻¹ | 2780 ± 960 µM |
| G40U A53U | 0.00278 ± 0.00064 s⁻¹ | 0.000101 ± 8.3e-06 s⁻¹ | 0.000254 ± 3.2e-05 s⁻¹ | 0.000821 ± 9.1e-05 s⁻¹ | 0.00203 ± 0.00093 s⁻¹ | 0.00266 ± 0.00031 s⁻¹ | 1300 ± 390 µM |
| G40A C50U U54C C68U | < 1e-05 s⁻¹ | < 1e-05 s⁻¹ | < 1e-05 s⁻¹ |  |  | < 1e-05 s⁻¹ |  |
| G37U U57G | < 1e-05 s⁻¹ |  |  |  | < 1e-05 s⁻¹ |  |  |
| G37U U57C | < 1e-05 s⁻¹ |  |  |  | < 1e-05 s⁻¹ | < 1e-05 s⁻¹ |  |
| G40A G41A U55G | 8.3e-05 ± 7.3e-06 s⁻¹ |  |  | 4.12e-05 ± 1.4e-05 s⁻¹ | 7.85e-05 ± 2.1e-05 s⁻¹ | 7.52e-05 ± 1.5e-05 s⁻¹ | 578 ± 220 µM |
| A39C C70A | < 1e-05 s⁻¹ | < 1e-05 s⁻¹ |  | < 1e-05 s⁻¹ |  |  |  |
| A39U U57A | 0.0002 ± 1.2e-05 s⁻¹ |  |  | 2.12e-05 ± 7.4e-06 s⁻¹ | 7.13e-05 ± 1e-05 s⁻¹ | 0.000134 ± 1.5e-05 s⁻¹ | 4780 ± 530 µM |
| G40A A48G | 4.48e-05 ± 1.1e-05 s⁻¹ | < 1e-05 s⁻¹ |  |  | 4.6e-05 ± 7.9e-06 s⁻¹ | 3.71e-05 ± 7.6e-06 s⁻¹ |  |
| G40A A64G | 0.00353 ± 0.0011 s⁻¹ | 7.68e-05 ± 1.3e-05 s⁻¹ | 0.000131 ± 3.3e-05 s⁻¹ | 0.000538 ± 9e-05 s⁻¹ | 0.00188 ± 0.00029 s⁻¹ | 0.00259 ± 0.00038 s⁻¹ | 3100 ± 1400 µM |
| G38C C68G | 1.31e-05 ± 3.9e-06 s⁻¹ |  |  |  |  |  |  |
| G40C C71G | 0.0271 ± 0.0085 s⁻¹ | 0.000948 ± 8.7e-05 s⁻¹ | 0.0028 ± 0.00046 s⁻¹ | 0.00953 ± 0.0017 s⁻¹ | 0.0203 ± 0.0057 s⁻¹ |  | 1170 ± 420 µM |
| G37A U54G | 0.00267 ± 0.00094 s⁻¹ | 6.88e-05 ± 1.3e-05 s⁻¹ | 0.000132 ± 2.9e-05 s⁻¹ | 0.000413 ± 9.4e-05 s⁻¹ | 0.000936 ± 0.00022 s⁻¹ | 0.00234 ± 0.00032 s⁻¹ |  |
